# Assay results taken from the RNAGym collection of RNA variant scans (doi:10.1073/pnas.2313332121).
# Variants at the floor of the assay were thinned out.
# B1: TPR 5TU (parent)
# chain: GGAUCUUCUCGAUCUAACAAAAAAGACAAAUCUGCCACAAAGCUUGAGAGCAUCUUCGGAUGCAGAGGCGGCAGCCUUCGGUGGCGCGAUAGCGCCAACGUUCUCAACUAUGACACGCAAAACGCGUGCUCCGUUGAAUGGAGUUUAUCAUG
# Variants of: B1
# Test: polymerase ribozyme fitness, log enrichment relative to wild type (log ratio); higher = more active; in vitro selection for triplet polymerase activity
# Procedure, shortened: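 Input and output libraries were sequenced on Illumina after a single in vitro selection round, run in triplicate on PCR-built, transcribed mutant libraries of each subunit of a heterodimeric triplet polymerase ribozyme. Selection annealed libraries to a biotinylated primer, the partner subunit and triplets, incubated them frozen at −7 °C, then gel-excised extended constructs for streptavidin-bead capture and RT-PCR. Genotypes with ≥10 input reads and ≥1 read per output were kept. Fitness is the logarithm, taken in base 2, of genotype enrichment divided by wild-type enrichment, using inverse-variance-weighted replicate averages.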
row,Variant,polymerase ribozyme fitness (log ratio)
1,C96A G126C,-0.953
2,C99G U144A U148A,≤ -4.2
3,C95U G141A,0.432
4,G94C U101C,-0.185
5,G94C A107G,-3.89
6,G94U A142U,-1.73
7,C99G U102G U135A,≤ -4.2
8,C96U A115U,-2.64
9,G94A G124A A150U,0.987
10,C96U A107G G117A,≤ -4.2
11,U101C C132A,-2.05
12,G94A A97U,-1
13,C96U A115G G136U A142G,-3.69
14,G94C A97U G136C,-3.35
15,C96G C103U,-0.445
16,C95A C96A,-2.33
17,C96G A98G G124A,-1.82
18,C95A G140A,-2.71
19,C96G A107G,≤ -4.2
20,C96A G126A U139G U151C,≤ -4.2
21,C96U A142G,-1.18

row,Variant,polymerase ribozyme fitness (log ratio)
1,C96U A142C,-1.15
2,U101G A107U,-3.84
3,G94A U101G,-0.0834
4,C96G C105G,-1.92
5,G94C A97G A121U A122U,-0.691
6,C96G A121C C129U,-0.0949
7,C95U A147U,0.673
8,A97U G141C U146G,-2.08
9,C96G C108A C123G,-3.69
10,G94U C114G C116U,≤ -4.2
11,C96U G133A,-3.92
12,G100C G136U U146G,≤ -4.2
13,G94C A97U,-2.45
14,C96G A142U U146A,-1.97
15,C96G A122U A142U,-1.45
16,A98G A120G,-0.401
17,A97U G117U,-1.25
18,U101G G124A,0.852
19,C95U C116A C129G U148G,≤ -4.2
20,G94A U104C C149U,-1.16
21,C95U C105G,-0.337

row,Variant,polymerase ribozyme fitness (log ratio)
1,C95U G100U U104G C114U G141C A150C,≤ -4.2
2,C96U A97G G124A C149A,-4.08
3,A97U C125A,-0.436
4,G94A G117U,-0.469
5,A97G C123U,0.215
6,A97U,-0.75
7,A97C,0.773
8,A97G,-0.12
9,C99U C149U,-1.17
10,C96U U109C,-3.67
11,U101G A106C A113C A122G,≤ -4.2
12,G94U A147U,0.0631
13,G94A A106G C131G,≤ -4.2
14,U101A U109G C118U C125G A138G G141A,≤ -4.2
15,C99G C129A,-3.81
16,C99A C114U U135G,-3.68
17,C95U,-0.031
18,C95A,0.441
19,G94C A113G,-2.8
20,C96U A113U G124U,-2.41
21,U101A A106C A147G,-3.14

row,Variant,polymerase ribozyme fitness (log ratio)
1,G94A G143A,-1.01
2,G94A G143U,-3.57
3,C96U A119U G152C,-3.13
4,U101C A150G,-1.59
5,A97G C99G,-0.579
6,C99U C125U,0.0952
7,C95U C131G,-3.24
8,G94A A110G,-2.35
9,A97G C116U G133U,≤ -4.2
10,A98G U101C G141U,0.851
11,C99A G136A,-0.217
12,C99U A150G,-0.552
13,C99U A150C,≤ -4.2
14,C95U A150G,-2.25
15,C96A U135C,-1.91
16,C96G U134G,-1.64
17,C96U,-0.258
18,C96A,-0.52
19,C96G,-0.496
20,C96G G143C,-2.86
